Measured values taken from IntAct's records for PubMed 20890306.

B1: FAS-associated death domain protein (Homo sapiens), Q13158 (parent)
chain: MDPFLVLLHSVSSSLSSSELTELKFLCLGRVGKRKLERVQSGLDLFSMLLEQNDLEPGHTELLRELLASLRRHDLLRRVDDFEAGAAAGAAPGEEDLCAAFNVICDNVGKDWRRLARQLKVSDTKIDSIEDRYPRNLTERVRESLRIWKNTEKENATVAHLVGALRSCQMNLVADLVQEVQQARDLQNRSGAMSPMSWNSDASTSEAS

Variants of: B1
Settings: with plk1_human PLK1, P53350
plk1_human PLK1, P53350, sequence (P53350 whole entry): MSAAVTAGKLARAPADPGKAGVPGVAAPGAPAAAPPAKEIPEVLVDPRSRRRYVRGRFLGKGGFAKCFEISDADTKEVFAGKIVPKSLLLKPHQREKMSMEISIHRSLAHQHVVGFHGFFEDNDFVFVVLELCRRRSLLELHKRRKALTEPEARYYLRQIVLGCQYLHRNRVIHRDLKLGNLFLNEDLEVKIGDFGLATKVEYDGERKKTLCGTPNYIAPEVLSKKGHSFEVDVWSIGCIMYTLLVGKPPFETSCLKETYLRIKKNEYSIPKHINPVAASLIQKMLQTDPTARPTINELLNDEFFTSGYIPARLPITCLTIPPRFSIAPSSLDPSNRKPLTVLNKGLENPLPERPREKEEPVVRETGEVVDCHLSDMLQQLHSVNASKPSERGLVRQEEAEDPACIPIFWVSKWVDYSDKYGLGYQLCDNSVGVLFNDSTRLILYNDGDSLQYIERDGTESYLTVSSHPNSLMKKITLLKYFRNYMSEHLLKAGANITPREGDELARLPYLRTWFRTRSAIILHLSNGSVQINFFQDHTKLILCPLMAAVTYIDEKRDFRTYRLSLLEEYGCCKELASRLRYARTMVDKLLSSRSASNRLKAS

Row | Variant | effect of a mutation on the interaction
1 | S194A | disrupting interaction
